According to patent US20220049008A1 (MULTITUDE, published 2022):
“And” between values parts separate entries of the source, which are not always exact repeats. Equal values may be shown once.

B1: HIS029-vc-MMAE (other)
VH: QVHLQQPGAELVRPGASVKLSCKASGYTFTNYWINWVKQRPGQGLEWIGNIYPSDSYTNYNQKFKDKATLTVDKSSSTAYVHLSSPTSEDSAVYYCTKWGDSDYWGQGTTLTVSS
VL: DIKMTQSPSSMYASLGERVTITCKASQDINRYLRWFQQKPGKSPKTLIYRANRLVDGVPSRFSGSGSGQDYSLTISSLEYEDMGIYYCLQYDEFPFTFGSGTKLEIK
modifications: monomethyl auristatin E coupled through a maleimidocaproyl-Val-Cit-PAB linker by a thiol-based reaction; sites not stated
B2: HIS029 (antibody, V domains shown)
VH: QVHLQQPGAELVRPGASVKLSCKASGYTFTNYWINWVKQRPGQGLEWIGNIYPSDSYTNYNQKFKDKATLTVDKSSSTAYVHLSSPTSEDSAVYYCTKWGDSDYWGQGTTLTVSS
VL: DIKMTQSPSSMYASLGERVTITCKASQDINRYLRWFQQKPGKSPKTLIYRANRLVDGVPSRFSGSGSGQDYSLTISSLEYEDMGIYYCLQYDEFPFTFGSGTKLEIK
notes: Monoclonal antibody from a hybridoma, V regions amplified with mouse Ig primers; also called anti-CD44 v7/8 antibody; antibody clone HIS029
B3: Humanized HIS029 (antibody, V domains shown)
VH: QVQLVQSGSELKKPGASVKVSCKASGYTFTNYWINWVRQAPGQGLEWMGNIYPSDSYTNYNQKFKDRAVFSVDKSVSTAYLQISSLKAEDTAVYYCTKWGDSDYWGQGTTVTVSS
VL: DIQMTQSPSSLSASVGDRVTITCKASQDINRYLRWFQQKPGKSPKTLIYRANRLVDGVPSRFSGSGSGQDYTLTISSLQPEDFATYYCLQYDEFPFTFGQGTKLEIK
notes: also called humanized HIS029 antibody

Experiments:
[1] = molecular target: T1, CD44 v7/8 (human CD44 v7/8 splice variant) on CD44+ cells (human, UniProt P16070 21-742); assay: cell-based or functional assay
T1 sequence (P16070 21-742 limits assumed, change not shown): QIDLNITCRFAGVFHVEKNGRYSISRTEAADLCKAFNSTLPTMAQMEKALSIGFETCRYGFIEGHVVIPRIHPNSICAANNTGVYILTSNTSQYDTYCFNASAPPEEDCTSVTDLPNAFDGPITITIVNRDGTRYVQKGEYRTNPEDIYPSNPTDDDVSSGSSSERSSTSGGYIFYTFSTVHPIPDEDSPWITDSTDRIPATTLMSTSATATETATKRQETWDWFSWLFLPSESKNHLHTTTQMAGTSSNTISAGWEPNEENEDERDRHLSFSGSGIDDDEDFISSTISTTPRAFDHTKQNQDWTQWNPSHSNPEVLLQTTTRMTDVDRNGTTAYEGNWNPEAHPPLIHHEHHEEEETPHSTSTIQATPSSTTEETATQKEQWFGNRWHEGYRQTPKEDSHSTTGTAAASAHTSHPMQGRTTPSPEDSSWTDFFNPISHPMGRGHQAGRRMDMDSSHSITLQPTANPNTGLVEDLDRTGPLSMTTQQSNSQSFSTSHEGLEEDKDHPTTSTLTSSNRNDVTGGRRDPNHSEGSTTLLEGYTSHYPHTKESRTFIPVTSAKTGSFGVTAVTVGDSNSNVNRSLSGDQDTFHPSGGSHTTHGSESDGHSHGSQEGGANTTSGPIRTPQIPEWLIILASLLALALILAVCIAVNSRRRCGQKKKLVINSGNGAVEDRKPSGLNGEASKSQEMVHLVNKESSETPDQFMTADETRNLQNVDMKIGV

[2] = molecular target: T1, CD44 v7/8 (human CD44 v7/8 splice …); assay: flow cytometry on CD44+ A253 cells, antibody titration
[3] = molecular target: T1, CD44 v7/8 (human CD44 v7/8 splice …); assay: flow cytometry on A253 cells; HIS029 (parental antibody), A253 cells
[4] = molecular target: T1, CD44 v7/8 (human CD44 v7/8 splice …); assay: flow cytometry on A253 cells; humanized HIS029, A253 cells

Row | Binder | cell viability, IC50 (A253 cells) [1] | cell viability, IC50 (BXPC3 cells) [1] | cell viability, IC50 (D562 cells) [1] | cell viability, IC50 (NCI-H520 cells) [1] | EC50 (read off the curve) [2] | Kd [3] | Kd [4]
1 | B1 | 0.797 nM | 0.189 nM | 0.63 nM | 0.588 nM |  |  | 
2 | B2 |  |  |  |  | ~40 nM | 35 nM | 
3 | B3 |  |  |  |  | ~40 nM and ~60 nM |  | 36 nM
